In patent publication US20170204445A1, “IN VIVO SITE-SPECIFIC PROTEIN TAGGING USING ENGINEERED SORTASE VARIANTS” (priority 2016, published 2017):

Assays:
[1] = biological target: T1, SrtA7M (Staphylococcus aureus, UniProt Q2FV99, D160N/D165A/E105K/E108Q/G167E/K190E/K196T/P94R); experiment: In vitro conjugation of purified LPETGG-tagged proteins by SrtA7M (ESI-TOF LC-MS); format: biochemical; conditions: 10 μM SrtA7M, 100 mM Azp or propargylamine, 8 hours, 37° C.
T1 construct: […]; made in house; host or cells: E. coli
Description: FIG. 3. Transpeptidation of purified proteins. Purified proteins expressed with a C-terminal LPETGG sequence were incubated with 10 μM SrtA7M for 8 hours at 37° C. along with the desired amine. Proteins were then diluted 10-fold with 0.2% formic acid and analyzed by ESI-TOF LC-MS. (A) Maltose binding protein. (B) Sf9 nanobody, and (C) Fibronectin Fn10, all show 80-100% conversion to the desired conjugate.
FIG. 9. Sortase conjugation time course.
FIG. 10. In vitro conjugation of sfGFP derivatives. (A) His-sfGFP-srt and (B) sfGFPHis-srt were incubated with 10 μM SrtA7M and 100 mM Azp or propargylamine for 8 hours at 37° C.
We next determined the ability of SrtA7M to modify purified proteins. We incubated several proteins containing a C terminal LPETGG sequence (srt) with 10 μM enzyme and either 100 mM Azp or propargylamine, followed by quenching with formic acid. […] To define the effective range of reaction conditions, we tested the conjugation of MBP-srt with Azp at different time points and substrate concentrations.
In vitro conjugation of proteins. Purified MBP-srt, His-sfGFP-srt, Nanobody-His-srt, Glutathione-S-transferase-His-srt, Fibronectin-His-srt, and sfGFP-His-srt were labeled after purification in 100 mM ammonium bicarbonate buffer pH 7.8. […]

[2] = biological target: LPETGSW peptide (Staphylococcus aureus, UniProt Q2FV99, G167E); experiment: Transpeptidation of LPETGSW peptide with wild-type SrtA; conditions: 15-fold more enzyme (150 μM), 20 hours, 37° C., 25 mM Tris.HCl pH 7.5, 10 mM CaCl2

B1: Fn10-His-srt: engineered fibronectin domain Fn10 with His tag and C terminal LPETGG, SEQ ID NO: 29 (protein, listed as Homo sapiens)
chain: MLVPRGSSDVPRDLEVVAATPTSLLISWDAPAVTVRYYRITYGETGGNSPVQEFTVPGSKSTATISGLKPGVDYTITVYAVTPRGDWNEGSKPISINYRTGKKGKGGHHHHHHLPETGG
modifications: His tag, LPETGG
conversion / modification of the protein with the amine [1]: complete conversion

B2: Wild-type SrtA: wild-type Staphylococcus aureus sortase A Δ59, SEQ ID NO: 26 (protein, listed as Homo sapiens)
chain: MQAKPQIPKDKSKVAGYIEIPDADIKEPVYPGPATPEQLNRGVSFAEENESLDDQNISIAGHTFIDRPNYQFTNLKAAKKGSMVYFKVGNETRKYKMTSIRDVKPTDVEVLDEQKGKDKQLTLITCDDYNEKTGVWEKRKIFVATEVKLEHHHHHH
conversion of LPETGSW peptide [2]: modest conversion
